# Reference: the supplement of paper PMC10567573
# B1: PLD5 (parent)
# chain: WIVDKQHVYIGSAGLDWQSLGQMK
# B2: BTBD1 (parent)
# chain: TSAEIELPDVEPAAFLALLRFLYS
# Variants of: B1
# Assay: protein stability index of a GFP-peptide fusion (GPS, HEK-293T) (PSI 1-6); higher = more stable
# Conditions: c terminus: a fixed tail appended
# 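Further: lentivirally expressed fusions sorted by FACS into six bins by GFP to DsRed ratio, PSI derived from sequencing read proportions per bin multiplied by bin number.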
row,Variant,protein stability index
1,WIVAKQHVYIGSAGLDWQSLGQMK [D4A],1.83
2,WIVQKQHVYIGSAGLDWQSLGQMK [D4Q],1.45
3,WIVPKQHVYIGSAGLDWQSLGQMK [D4P],1.13
4,WIVVKQHVYIGSAGLDWQSLGQMK [D4V],3.83
5,WIVGKQHVYIGSAGLDWQSLGQMK [D4G],1.39
6,WIVDKQHVYIGSAGLDWQSPGQMK [L20P],2.1
7,WIVDKQHVYIGSAGLDWQSIGQMK [L20I],1.97
8,WIVDKQHVYIGSAGLDWQSAGQMK [L20A],1.65
9,WIVDKQHVYIGSAGLDWQSWGQMK [L20W],1.85
10,WIVDKQHVYIGSAGLDWQSYGQMK [L20Y],1.97
11,WIVDKDHVYIGSAGLDWQSLGQMK [Q6D],1.4
12,WIVDKYHVYIGSAGLDWQSLGQMK [Q6Y],1.41
13,WIVDKQHVYSGSAGLDWQSLGQMK [I10S],1.73
14,WIVDKQHVYHGSAGLDWQSLGQMK [I10H],1.93
15,WIVDKQHVYVGSAGLDWQSLGQMK [I10V],1.92
16,WIVDKQHVYEGSAGLDWQSLGQMK [I10E],2.22
17,WIVDKQHVYDGSAGLDWQSLGQMK [I10D],2.41
18,WIVDKQHVYYGSAGLDWQSLGQMK [I10Y],1.73
19,WIVDKQHVYMGSAGLDWQSLGQMK [I10M],2.11
20,WIVDKQHVYIGSAGLDDQSLGQMK [W17D],1.94
21,WIVDKQHVYIGSAGLDMQSLGQMK [W17M],1.38
22,WIVDKQHVYIGSAGLDKQSLGQMK [W17K],1.72
23,WIVDKQHVYIGSAGLDRQSLGQMK [W17R],1.9
24,WIVDKQHVYIGSAGLDPQSLGQMK [W17P],1.64
25,WISDKQHVYIGSAGLDWQSLGQMK [V3S],2.09

row,Variant,protein stability index
1,WILDKQHVYIGSAGLDWQSLGQMK [V3L],2.01
2,WIWDKQHVYIGSAGLDWQSLGQMK [V3W],2.13
3,WIRDKQHVYIGSAGLDWQSLGQMK [V3R],1.52
4,WIEDKQHVYIGSAGLDWQSLGQMK [V3E],2.09
5,WIYDKQHVYIGSAGLDWQSLGQMK [V3Y],1.56
6,WIKDKQHVYIGSAGLDWQSLGQMK [V3K],1.84
7,WIADKQHVYIGSAGLDWQSLGQMK [V3A],1.86
8,WITDKQHVYIGSAGLDWQSLGQMK [V3T],1.59
9,WIVDKQNVYIGSAGLDWQSLGQMK [H7N],1.48
10,WIVDKQHVHIGSAGLDWQSLGQMK [Y9H],1.75
11,WIVDKQHVWIGSAGLDWQSLGQMK [Y9W],1.75
12,WIVDKQHVTIGSAGLDWQSLGQMK [Y9T],2.1
13,WIVDKQHVRIGSAGLDWQSLGQMK [Y9R],1.41
14,WIVDKQHVYIGSAGLDWQSLGWMK [Q22W],2.11
15,WIVDKQHVYIGSAGLDWQSLGLMK [Q22L],3.9
16,WIVDKQHVYIGSAGLDWQSLGRMK [Q22R],1.37
17,WIVDKQHVYIGSAGLDWQSLGYMK [Q22Y],2.35
18,WIVDKQHVYIGSAGLDWQSLGAMK [Q22A],2.11
19,WIVDKQHVYIGSAGLDWQSLGSMK [Q22S],1.97
20,WIVDKQHVYIGSAGLDWQSLGQYK [M23Y],1.84
21,WIVDKQHVYIGSAGLDWQSLGQVK [M23V],1.29
22,WIVDKQHVYIGSAGLDWQSLGQCK [M23C],2.21
23,WIVDKQHVYIGSAGLDWQSLGQKK [M23K],1.69
24,WIVDKQHVYIGSAGLDWQSLGQRK [M23R],1.97
25,WIVDKQHVYIGSAGLDWQSLGQDK [M23D],2.15

# Variants of: B2
# Assay: as above
# Conditions: c terminus: a fixed tail appended
row,Variant,protein stability index
1,TSGEIELPDVEPAAFLALLRFLYS [A3G],2.66
2,TSDEIELPDVEPAAFLALLRFLYS [A3D],2.12
3,TSCEIELPDVEPAAFLALLRFLYS [A3C],1.98
4,TSHEIELPDVEPAAFLALLRFLYS [A3H],1.8
5,TSFEIELPDVEPAAFLALLRFLYS [A3F],1.58
6,TSEEIELPDVEPAAFLALLRFLYS [A3E],1.91
7,NSAEIELPDVEPAAFLALLRFLYS [T1N],2.17
8,KSAEIELPDVEPAAFLALLRFLYS [T1K],2.68
9,ESAEIELPDVEPAAFLALLRFLYS [T1E],1.66
10,FSAEIELPDVEPAAFLALLRFLYS [T1F],1.79
11,DSAEIELPDVEPAAFLALLRFLYS [T1D],2.4
12,RSAEIELPDVEPAAFLALLRFLYS [T1R],1.9
13,ISAEIELPDVEPAAFLALLRFLYS [T1I],1.65
14,VSAEIELPDVEPAAFLALLRFLYS [T1V],1.88
15,GSAEIELPDVEPAAFLALLRFLYS [T1G],2.56
16,LSAEIELPDVEPAAFLALLRFLYS [T1L],2.02
17,HSAEIELPDVEPAAFLALLRFLYS [T1H],2.15
18,CSAEIELPDVEPAAFLALLRFLYS [T1C],2.79
19,YSAEIELPDVEPAAFLALLRFLYS [T1Y],1.97
20,SSAEIELPDVEPAAFLALLRFLYS [T1S],1.65
21,PSAEIELPDVEPAAFLALLRFLYS [T1P],1.88
22,MSAEIELPDVEPAAFLALLRFLYS [T1M],2.46

row,Variant,protein stability index
1,QSAEIELPDVEPAAFLALLRFLYS [T1Q],1.97
2,ASAEIELPDVEPAAFLALLRFLYS [T1A],2.22
3,WSAEIELPDVEPAAFLALLRFLYS [T1W],1.96
4,TWAEIELPDVEPAAFLALLRFLYS [S2W],1.91
5,TKAEIELPDVEPAAFLALLRFLYS [S2K],2.39
6,TQAEIELPDVEPAAFLALLRFLYS [S2Q],2.24
7,TPAEIELPDVEPAAFLALLRFLYS [S2P],2.33
8,TLAEIELPDVEPAAFLALLRFLYS [S2L],1.99
9,TCAEIELPDVEPAAFLALLRFLYS [S2C],2.05
10,TDAEIELPDVEPAAFLALLRFLYS [S2D],1.61
11,TRAEIELPDVEPAAFLALLRFLYS [S2R],2.09
12,TNAEIELPDVEPAAFLALLRFLYS [S2N],1.49
13,TVAEIELPDVEPAAFLALLRFLYS [S2V],1.87
14,TGAEIELPDVEPAAFLALLRFLYS [S2G],2.15
15,TEAEIELPDVEPAAFLALLRFLYS [S2E],1.65
16,TTAEIELPDVEPAAFLALLRFLYS [S2T],1.74
17,TMAEIELPDVEPAAFLALLRFLYS [S2M],1.7
18,THAEIELPDVEPAAFLALLRFLYS [S2H],1.82
19,TFAEIELPDVEPAAFLALLRFLYS [S2F],2
20,TAAEIELPDVEPAAFLALLRFLYS [S2A],1.72
21,TIAEIELPDVEPAAFLALLRFLYS [S2I],2.07
22,TYAEIELPDVEPAAFLALLRFLYS [S2Y],2.28
